# Positions count from the first letter of the chain named.
# T1: CD40L (UniProt P29965 1-261, limits assumed)
# T1 construct: whole, on cells; also called cytokine over-expressing Expi293 cells (CD40L)
# T1 sequence (looked up): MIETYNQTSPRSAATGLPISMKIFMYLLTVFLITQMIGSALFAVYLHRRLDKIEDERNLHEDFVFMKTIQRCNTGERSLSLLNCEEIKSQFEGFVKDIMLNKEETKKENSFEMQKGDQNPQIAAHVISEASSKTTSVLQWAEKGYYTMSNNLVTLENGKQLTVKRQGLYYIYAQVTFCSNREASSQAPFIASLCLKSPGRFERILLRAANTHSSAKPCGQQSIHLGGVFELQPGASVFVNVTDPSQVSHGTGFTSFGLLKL
# B1: CD40L-364 (antibody, V domains shown)
# VH: EVQLLESGGGLVQPGGSLRLSCAASGFTFSPYAMSWVRQAPGKGLEWVSSITGTGGSTYYADSVKGRFTISRDNSKNTLYLQMNSLRAEDTAVYYCARSWASEDFDWLPNFDFWGQGTLVTVSS
# VL: DIQMTQSPSSLSASVGDRVTITCRVSQSISSYLHWYQQKPGKAPKLLIYAASSLQTGVPSRFSGSGSGTDFTLTISSLQPEDFATYYCQQSYTLPLTFGGGTKVEIK
# B2: CD40L-372 (antibody, V domains shown)
# VH: EVQLLESGGGLVQPGGSLRLSCAASGFTFTSYAMTWVRQAPGKGLEWVSSITSSGGSTYYADSVKGRFTISRDNSKNTLYLQMNSLRAEDTAVYYCARAHDYDSMLMDYWGQGTLVTVSS
# VL: B1 VL with V25A, S30R, H34N, A51T, Q55H, T56S, L78M, Y92F, T93S, L96P
# B3: CD40L-362 (antibody, V domains shown)
# VH: EVQLLESGGGLVQPGGSLRLSCAASGFTFTSYAMSWVRQAPGKGLEWVSGISGSGINTYYADSVKGRFTISRDNSRNTLYLQMNSLRAEDTAVYYCVRSSWSDVWGQGTLVTVSS
# VL: DIQMTQSPSSLSASVGDRVTITCRASQNIINYLNWYQQKPGKAPKLLIYGASTLESGVPSRFSGSGSGTDFTLTISSLQPEDFATYYCQQSYSVPLTFGGGTKVEIK
# B4: CD40L-365 (antibody, V domains shown)
# VH: EVQLLESGGGLVQPGGSLRLSCAASGFTFSYYAMTWVRQAPGKGLEWVSGISGSGGSSYYADSVKGRFTISRDNSKNTLYLQMNSLRAEDTAVYYCARSHDYDRQTFDYWGQGTLVTVSS
# VL: B3 VL with N28S, I30A, N31T, N34H, G50S, S93R, V94P
# B5: CD40L-381 (antibody, V domains shown)
# VH: EVQLLESGGGLVQPGGSLRLSCAASGFTFSSYDMNWVRQAPGKGLEWVAAISGSGGTTYYADSVKGRFTISRDNSKNTLYLQMNSLRAEDTAVYYCARGVYESMTGTYGYVDWFDPWGQGTLVTVSS
# VL: B3 VL with N28S, I30P, N31T, G50A, S52A, T53N, E55Q, S93A, V94T, L96F
# B6: CD40L-376 (antibody, V domains shown)
# VH: B4 VH with Y31S, T35S, G50A, G53A, S57T, S58T
# VL: B3 VL with N28S, I30S, N31T, Y32F, N34S, G50A, A51T, V94T
# B7: CD40L-414 (antibody, V domains shown)
# VH: EVQLLESGGGLVQPGGSLRLSCAASGFTFSNYAMSWVRQAPGKGLEWVSAITGSGSTTYYADSVKGRFTISRDNSKNTLYLQMNSLRAEDTAVYYCATDYGDYDRLNFDLWGQGTLVTVSS
# VL: B3 VL with N28S, I30G, N31T, Y32F, A51T, T53N, E55Q, S91G, S93R, V94T
# B8: CD40L-366 (antibody, V domains shown)
# VH: B2 VH with T28G, T30S, T35S, S50A, S53G, G56S, S57T
# VL: B1 VL with V25A, I29V, S31R, Y32F, H34N, S53T, T56P, T93E, L94T
# B9: CD40L-380 (antibody, V domains shown)
# VH: B2 VH with T28G, T30S, T35S, S50A, T52S, S53G, S54G, T58I
# VL: B1 VL with V25A, I29V, S31R, Y32F, H34N, S53T, T56P, T93E, L94T
# B10: CD40L-419 (antibody, V domains shown)
# VH: B2 VH with T30S, S31N, T35S, S50A, S53G, G56S, S57T
# VL: B3 VL with S26G, N28S, I30S, N31S, G50A, A51S, E55Q, S56R, Y92H
# B11: CD40L-398 (antibody, V domains shown)
# VH: B2 VH with T30S, S31N, T35S, S50A, S53G, G56S, S57T
# VL: B3 VL with S9F, I30L, N31T, E55R, S93R, V94L
# B12: CD40L-382 (antibody, V domains shown)
# VH: B7 VH with T28G, N31S, T52S, S54G, S56G, T57S, T58I
# VL: B3 VL with N28S, I30G, N31T, Y32F, A51T, T53N, E55Q, S91G, S93R, V94T
# B13: CD40L-403 (antibody, V domains shown)
# VH: EVQLLESGGGLVQPGGSLRLSCAASGFTFRNYGMNWVRQAPGKGLEWVSSISGSGDYTYYADSVKGRFTISRDNSKNTLYLQMNSLRAEDTAVYYCARGLTYDILPRFDSWGQGTLVTVSS
# VL: B3 VL with N28T, I30S, N31P, G50A, E55Q, S56A, G64S, V94L
# B14: CD40L-383 (antibody, V domains shown)
# VH: B2 VH with T30S, S31N, T35S, S50A, S53G, G56S, S57T
# VL: B3 VL with N28Y, I30N, G50A, A51S, E55Q, S56R, Y92F, V94T, L96I
# B15: CD40L-363 (antibody, V domains shown)
# VH: EVQLLESGGGLVQPGGSLRLSCAASGFTFSDYDMSWVRQAPGKGLEWVSGISGSGATTYYADSVKGRFTISRDNSKNTLYLQMNSLRAEDTAVYYCARDSSGSYYYPLDYWGQGTLVTVSS
# VL: B3 VL with A25T, N28S, I30S, N31S, L33A, T53R, S91T, V94T, L96W, E105G
# B16: CD40L-434 (antibody, V domains shown)
# VH: EVQLLESGGGLVQPGGSLRLSCAASGFGFSSYAMSWVRQAPGKGLEWVSAISGGGGSIYYADSVKGRFTISRDNSKNTLYLQMNSLRAEDTAVYYCARHGGYYYYYMDVWGQGTLVTVSS
# VL: B1 VL with V25A, I29V, S31R, Y32F, H34N, S53T, T56P, T93E, L94T
# B17: CD40L-404 (antibody, V domains shown)
# VH: EVQLLESGGGLVQPGGSLRLSCAASGFTFRTYAMGWVRQAPGKGLEWVSAISGSGGIAYYADSVKGRFTISRDNSKNTLYLQMNSLRAEDTAVYYCARHYYYDSSDAFDIWGQGTLVTISS
# VL: B3 VL with N28T, I30S, N31Y, G50D, S52T, T53S, E55Q, S91T, V94L
# B18: CD40L-373 (antibody, V domains shown)
# VH: B17 VH
# VL: B1 VL with V25G, Y32F, H34N, S53K, Q55H, T56S, Q90H, T93S, L94T
# B19: CD40L-371 (antibody, V domains shown)
# VH: EVQLLESGGGLVQPGGSLRLSCAASGFTSNIYAMSWVRQAPGKGLEWVSAISGSGFSTYYADSVKGRFTISRDNSKNTLYLQMNSLRAEDTAVYYCAKLAQNYGDPDAFDIWGQGTLVTVSS
# VL: DIQMTQSPSSLSASVGDRVTITCRASQSISKYLNWYQQKPGKAPKLLIYAATSLESGVPSRFSGSGSGTDFTLTISSLQPEDFATYYCQQSYSTPLFTFGGGTKVEIK
# B20: CD40L-416 (antibody, V domains shown)
# VH: EVQLLESGGGLVQPGGSLRLSCAASGFTFSNYAMSWVRQAPGKGLEWVSAISGSGHSTYYADSVKGRFTISRDNSKNTLYLQMNSLRAEDTAVYYCARGGGYYNPLLFDYWGQGTLVTVSS
# VL: B19 VL with S28Y, K31T, T52S, S53T, S56T, T94I, L96P, F97V
# Target: T1, CD40L
# Assay: flow cytometry, 100 nM IgG, CD40L over-expressing Expi293 cells over parent Expi293 cells
# Method: All incubations and washes were in buffer containing PBS+1% BSA. MFI Ratio is defined by the mean fluorescence intensity (MFI) of the cytokine over-expressing Expi293 cell over the Expi293 parent cell. […] EC50 was calculated in GraphPad Prism.
row,Binder,100 nM FACS (MFI Ratio)
1,B1,6.8 MFI ratio
2,B2,8.5 MFI ratio
3,B3,1060 MFI ratio
4,B4,4.6 MFI ratio
5,B5,1.7 MFI ratio
6,B6,13.5 MFI ratio
7,B7,11.2 MFI ratio
8,B8,43 MFI ratio
9,B9,8.4 MFI ratio
10,B10,18.6 MFI ratio
11,B11,45.1 MFI ratio
12,B12,10.7 MFI ratio
13,B13,3.1 MFI ratio
14,B14,24.1 MFI ratio
15,B15,3 MFI ratio
16,B16,6.1 MFI ratio
17,B17,7.1 MFI ratio
18,B18,1.7 MFI ratio
19,B19,3.5 MFI ratio
20,B20,3.4 MFI ratio
